One block for each binder: values may come before it.
Key:
[1] = target: chimera L; assay: Bio-Plex titration on His-captured chimera; bold cell = binding criterion not met
[2] = target: Human IL-17RA full-length expressed on the surface of cells (human) (UniProt Q96F46); assay: cell-based or functional assay

EC50 as fitted, in a bold cell (binding criterion not met) [1]: 6 pM
B1: AMH26/AML26 (antibody, IgG2, V domains shown)
VH: QVQLVESGGGLVKPGGSLRLSCAASGFTFSDYYMSWIRQAPGKGLEWVSYISSSGSTIYYADSVKGRFTISRDNAKNSLYLQMNSLRAEDTAVYYCARDRTYYFGSGSYEGMDVWGQGTTVTVSS
VL: EILMTQSPATLSVSPGERATLSCRASQSVYSNLAWYQQKPGQAPRLLISGASTRATGIPARFSGSGSGTEFTLTISSLQSEDFAVYYCQQYYNWPWTFGQGTKVEIK

% inhibition of IL-6 production, IL-17A/HFF bioassay, supernatant 19 (incl. AMH23), 1:4 dilution [2]: 79% | % inhibition of IL-6 production, IL-17A/HFF bioassay, supernatant 19 (incl. AMH23), 1:32 [2]: 72% | % inhibition of IL-6 production, repeat IL-17A/HFF bioassay, supernatant 19 (incl. AMH23), 1:4 [2]: 86% | % inhibition of IL-6 production, repeat IL-17A/HFF bioassay, supernatant 19 (incl. AMH23), 1:32 [2]: 76% | % inhibition of IL-6 production, repeat IL-17A/HFF bioassay, supernatant 19 (incl. AMH23), 1:128 [2]: 67% | % inhibition of IL-6 production, repeat IL-17A/HFF bioassay, supernatant 19 (incl. AMH23), 1:512 [2]: 50%
B2: AMH23/AML23 (antibody, part only; not given: light variable domain, version unclear, V domains shown, part only)
VH: QVQLQESGPGLVKPSETLSLTCTVSGGSISSYYWSWIRQPAGKRLEWIGRIYPSGRTNYNPSLKSRVTMSVDTSKNQFSLKLSSVTAADTAVYYCAREAYELQLGLYYYYGMDVWGQGTPVTVSS
